Legend:
[1] = target: T1, recombinant human OX40L protein (R&D Systems, cat. #1054-OX) (human, UniProt P23510 51-183); assay: cell-based or functional assay
T1 sequence: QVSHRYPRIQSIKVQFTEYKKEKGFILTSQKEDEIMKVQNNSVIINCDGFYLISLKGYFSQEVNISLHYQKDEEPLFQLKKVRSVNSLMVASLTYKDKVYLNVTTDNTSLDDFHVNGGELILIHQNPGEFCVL

[2] = target: T2, AVI-GST-His6-hOX40L (human, UniProt P23510 51-183); assay: cell-based or functional assay
T2 sequence: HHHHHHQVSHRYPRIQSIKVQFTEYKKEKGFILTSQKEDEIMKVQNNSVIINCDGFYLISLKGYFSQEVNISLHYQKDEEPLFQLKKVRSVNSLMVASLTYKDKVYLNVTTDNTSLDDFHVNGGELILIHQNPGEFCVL

[3] = target: T1, recombinant human OX40L protein (R&D …); assay: SPR steady state, Biacore T200; OX40L immobilised on CM5, antibody in solution
Method: Recombinant OX40L proteins (human OX40L protein, R&D systems, cat. #1054-OX; cynomolgus monkey OX40L, Novoprotein cat. #CP72) were immobilized onto Biacore CM5 sensor chips and anti-OX40L antibodies were bound to this surface at a range of concentrations. The response at steady state was measured with a Biacore T200 instrument (GE Healthcare) and plotted against the concentration of antibody and fit to a 1:1 binding model. The steady state KD was determined as the antibody concentration at a response equal to half the maximal response (Rₘₐₓ).
As with the IgG clones, binding affinity to human OX40L was determined for all twelve FcFabs using steady state affinity assay as described in section 1.1.7 of Example 1. […]

Primary T cell activation assay IC50 [1]: 15.2 nM
OX40L neutralization/OX40-HEK Reporter IC50 [2]: 57.2 nM
binding result [3]: no binding
B1: 84E11 (FcFab) (antibody)
heavy: EPKSSDKTHTCPPCPAPPVAGPSVFLFPPKPKDTLMISRTPEVTCVVVDVSHEDPEVKFNWYVDGVEVHNAKTKPREEQYNSTYRVVSVLTVLHQDWLNGKEYKCAVSNKALPSSIEKTISKAKGQPREPQVYTLPPSREEMTKNQVSLTCLVKGFYPSDIAVEWESNGQPENNYKTTPPVLDSDGSFFLYSKLTVDKSRWQQGNVFSCSVMHEALHNHYTQKSLSLSPGAGGGGSGGGGSGGGGSQLQLQESGPGLVKPSETLSLTCTVSGGSISSGSFYWGWIRQPPGKGLEWIGTIYYSGSTYYNPSLKSRVAISVDTSKNQFYLNLNFVTAADTAVYHCARERSSSWYPFDYWGQGTLVTVSSASTKGPSVFPLAPSSKSTSGGTAALGCLVKDYFPEPVTVSWNSGALTSGVHTFPAVLQSSGLYSLSSVVTVPSSSLGTQTYICNVNHKPSNTKVDKRVEPKSC
light: SSELTQDPAVSVALGQTVRITCQGDSLRNYFANWYQQKPGQAPVLVIYGKNNRPSGIPDRFSGSSSGNTASLTITGAQAEDEADYYCNSRDSSGYHVVFGGGTKLTVLGQPKAAPSVTLFPPSSEELQANKATLVCLISDFYPGAVTVAWKADSSPVKAGVETTTPSKQSNNKYAASSYLSLTPEQWKSHKSYSCQVTHEGSTVEKTVAPTECS
